The results in this text go back to the nanobody polyreactivity screen of Harvey et al. (2022).

A short description of this series: yeast display, Sf9 membrane polyspecificity reagent, FACS + sequencing; frameworks hold sequencing errors. In outline:
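A synthetic nanobody library was expressed on Saccharomyces cerevisiae BJ5465 by galactose induction for 36–48 hours. The library was stained for 1 hour at 4 °C with 10% biotinylated, detergent-solubilized Sf9 membrane reagent and enriched with streptavidin microbeads before FACS. Low and high (top ~1%) gates were set on anti-HA fluorescence for expression and streptavidin fluorescence for reagent binding, and each polyreactivity label reflects the gate of origin.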
In the case of “QVQLVESGGGLVQAGGSLRLSCAASGLTFQKYAMGWYRQAPGKERELVAAISRGGDTYYADSVKGRFTISRDNAKNTVYLQMNSLKPEDTAVYYCAASNYLYRYSHYGYWGQGTQVTVSS”, the “polyreactivity (PSR sort gate)” value was “high polyreactivity”.
With “QVQLVESGGGLVQAGGSLRLSCAASGLTFQLYTMGWYRQAPGKERELVAAISRSGTRTYYADSVKGRFTISRDNAQNTVYLQMNSLKPEDTAVYYCAARTDGYRNNYWGQATQVTVSS”, the “polyreactivity (PSR sort gate)” value is “high polyreactivity”.
In the case of “QVQLVESGGGLVQAGGSLRLSCAASGLTFQNNAMGWYRQAPGKERELVAVITRIGGSTYYADSVKGRFTISRDNAKNTVYLQMNSLKPEDTAVYYCAAGYRTRRRLHDYWGQGTQVTVSS”, the “polyreactivity (PSR sort gate)” value was “high polyreactivity”.
Under “QVQLVESGGGLVQAGGSLRLSCAASGLTFQTNAMGWYRQAPGKERELVAAISRRGSSTYYADSVKGRFTISRDNAKNTVYLQMNSLKPEDTAVYYCNAVRFLFIYPRYDYWGQGTQVTVSS” stands “high polyreactivity”.
Turning to “QVQLVESGGGLVQAGGSLRLSCAASGLTFQYNAMGWYRQAPGKERELVAVISWSGGSTYYADSVKGRFTISRDNAMNTVYLQMNSLIPEDTAVYYCNAVGFVWYFDVYSYFTEFKYDYWGQGTQVTVSS”, the “polyreactivity (PSR sort gate)” value was “low polyreactivity”.
Under “QVQLVESGGGLVQAGGSLRLSCAASGLTFRDNAMGRYRQAPGKERELVATINSGGSTDYADSVKGRFTISRDNAKNTVYLQMNSLKPEDTAVYYCAVSREYYDRGWYSIFYWYVYWGQGTQVTVSS” stands “low polyreactivity”; under “QVQLVESGGGLVQAGGSLRLSCAASGLTFRIYAMGWYRQAPGKERQLVAAISYRGGSTYYADSVKGRFTISRDNAKNTVYLQMNSLKPEDTAVYYCAAGFVLNGIRYDYWGQGTQVTVSS”, “high polyreactivity”.
On to “QVQLVESGGGLVQAGGSLRLSCAASGLTFRSYTMGWYRQAPGKERELVAAISSGGSTYYADSVKGRFTISRDNAKNTVYLQMNSLKPEDTAVYYCAAPRGHGKYYSWGQGTQVTVSS”, for which the “polyreactivity (PSR sort gate)” value is “high polyreactivity”.
Take “QVQLVESGGGLVQAGGSLRLSCAASGLTFRVYAMVWYRQAPGKERELVAAISKRGGSTYYADSVKGRFTISRDNAKKTVYLQMNSLKPEENAVYSCAADSDNSVRLAGSGGNYCGQGTQVTVSS”: the “polyreactivity (PSR sort gate)” value is given as “high polyreactivity”.
In the case of “QVQLVESGGGLVQAGGSLRLSCAASGLTFRYYAMGWYRQAPGKERELVAAITRRGSTYYADSVKGRFTISRDNAKNSVYLQMNSLKPEDTAVYYGATVTGFHSSPLRDLDYWGQGTQVTVSS” it was “high polyreactivity”; in that of “QVQLVESGGGLVQAGGSLRLSCAASGLTFRYYTMGWYRQAPGKERELVASINIRGGSTYYADSVKGRFTISRDNAKNTVYLQMNSLKAEDTSVYYCNNRYGFSFGYWGQGTQVTVSS”, “high polyreactivity”; in that of “QVQLVESGGGLVQAGGSLRLSCAASGLTFSAYAMGWYRQAPGKERELVAAITTGGGRTYYADSVKGRFTISRDNAKNTVYLQMNSLKPEDTAVYYCNTLRAYWTYHFYGAVRDGYDYWGQGTKVTVSS”, “low polyreactivity”.
Under “QVQLVESGGGLVQAGGSLRLSCAASGLTFSDYAMGWYRQAPGKERAFVAAITRNGGSTRYADSVKGRFTISRDNAKITVYLQMHSLKPEDTAVYYCATDVGFGRKQRPHRPGYGYWGQGTQVTVSS” stands “low polyreactivity”.
Under “QVQLVESGGGLVQAGGSLRLSCAASGLTFSGNVMGWYRQAPGKERELVAAIDRSGGSTYYADSVKGRFTISRDNAKNTVYLQMNSLKPEDTAVYYCAVSSYPNHSRSWDDYWGQGTQVTVSS” stands “low polyreactivity”; under “QVQLVESGGGLVQAGGSLRLSCAASGLTFSKYVMGWYRQAPGKERELVAAITWSGGRTYYADSVKGRFTISRDNAKNTVYLLMNSLKPEDTAVYYCNRKLKGLGYEYDYWGQGTQVTVSS”, “high polyreactivity”.
For the sequence “QVQLVESGGGLVQAGGSLRLSCAASGLTFSKYVMGWYRQAPGKERELVAAITWSGGRTYYADSVKGRFTISRDNAKNTVYLQMNSLKPEDTAVYYCNRKLKGLGYEYDYWGQGTQVTVSS”, the “polyreactivity (PSR sort gate)” value was “high polyreactivity”.
